Assay [1] addresses human IgG (human). In words: SPR, synthetic peptide.
Assay [2] deals with human IgG (human). In words: SPR, synthetic peptide on human IgG.
The target of assay [3] is human IgG (human). In words: SPR sensorgram analysis.
Assay [4] concerns the target human IgG (human). In words: affinity column with 1.2 µmol immobilized peptide, 1 mL human serum applied, elution at pH 2.5, absorbance.

Ends that are not written are not given here. NH2‑PEG4 = N-terminal amino-PEG4 group (N-terminal PEGylation)

The molecule DCTYTNGELVWCT [GFc-C35-3/15 (N10E)] gave a Kd in the assay with human IgG (human) [1] of 26 µM. As for SPDCAYHRGELVWCTFH [C35A (G1S)], the dissociation constant Kd with human IgG (human) [2] stood at 0.0093 µM.

As to GPRCAYHRGELVWCSFH [C35A (D3R, T15S)], in the assay with human IgG (human) [1], the equilibrium dissociation constant (Kd) came out at 0.042 µM and the ratio of Kd against C35A-3/15 (D3R, T15S) was 0.333 fold. Regarding DCTYTNGNLIWCT [GFc-C35-3/15 (V12I)], in the assay with human IgG (human) [1], the Kd worked out at 12 µM and the ratio of Kd against GFc-C35-3/15 stood at 0.1 fold. For DCTYTNGNMVWCT [GFc-C35-3/15 (L11M)] the same measures were 280 µM and 2 fold. Regarding SDDCAYHRGELVWCTFY (not fully specified; cysteine pairing not given here) [C35A (P2D, H17Y)], the dissociation constant Kd with human IgG (human) [2] came out at 0.013 µM. Turning to DCTYHRGNLVWCT [GFc-C35-3/15 (T7H, N8R)], the Kd with human IgG (human) [1] came out at 1.1 µM. For GPSCAYHRGELVWCTFH [C35A (D3S)], in the assay with human IgG (human) [2], the Kd worked out at 0.0285 µM. In the case of GPDCAYHRGELVWCSFH [C35A (T15S)], in the assay with human IgG (human) [2], the Kd was 0.0144 µM. In the assay with human IgG (human) [1], DCAYHRGNLVWCT [GFc-C35-3/15 (T7H, N8R, T5A)] registered a Kd of 0.25 µM. Molecule DCTWTNGNLVWCT [GFc-C35-3/15 (Y6W)] came in with a dissociation constant Kd in the assay with human IgG (human) [1] of 50 µM.

Molecule DCAWHRGELVWCT [GFc-C35-3/15 (T5A, Y6W, T7H, N8R, N10E)] registered a Kd in the assay with human IgG (human) [1] of 0.26 µM. In the assay with human IgG (human) [3], the Kd was 0.257 µM; the koff came out at 0.014 s⁻¹; the on-rate constant (kon) was 54000 M⁻¹ s⁻¹; the ratio of ka against GFc-C35-3/15 (T5A, T7H, N8R, N10E) was < 0.125 fold. Besides, in the assay with human IgG (human) [3], the ratio of kd against GFc-C35-3/15 (T5A, T7H, N8R, N10E) came to 0.5 fold. For the molecule GPDCTYTNGNLVWCTFH (not fully specified (bridges); cysteine pairing not given here) [GFc-C35], the Kd in the assay with human IgG (human) [1] was determined as 14 µM. As to GPDCAYHRGELVWCTFY [C35A (H17Y)], the equilibrium dissociation constant (Kd) with human IgG (human) [2] amounted to 0.012 µM. Still for that read-out and setting: under GPDCAYHRGELVWCTHH [C35A (F16H)] stands 0.0114 µM. In turn, DCAYTNGNLVWCT [GFc-C35-3/15 (T5A)] displayed a Kd in the assay with human IgG (human) [1] of 61 µM. Turning to DCTYHRGNLIWCT [GFc-C35-3/15 (T7H, N8R, V12I)], the Kd in the assay with human IgG (human) [1] turned out to be 4.8 µM. In the case of SPDCAYHRGELVWCTFY [C35A (G1S, H17Y)], in the assay with human IgG (human) [2], the Kd amounted to 0.011 µM. DCTYTNGNLVWCS [GFc-C35-3/15 (T15S)]: in the assay with human IgG (human) [1], the Kd is 34 µM and the ratio of Kd against GFc-C35-3/15 stood at 0.25 fold. Turning to RCTYTNGNLVWCT [GFc-C35-3/15 (D3R)], in the assay with human IgG (human) [1], the Kd was 69 µM.

The molecule GDDCAYHRGELVWCTFH [C35A (P2D)] showed a dissociation constant Kd with human IgG (human) [2] of 0.0133 µM. DCTYRNGNLVWCT [GFc-C35-3/15 (T7R)] showed an equilibrium dissociation constant (Kd) in the assay with human IgG (human) [1] of 83 µM. Same read-out and setting: under DCTFTNGNLVWCT [GFc-C35-3/15 (Y6F)] stands 2100 µM; under DCSYTNGNLVWCT [GFc-C35-3/15 (T5S)], 120 µM. As for GPDCAYHRGELVWCTFH [C35A], in the assay with human IgG (human) [1], the Kd is 0.009 µM and the ratio of Kd against C35A-3/15 was 0.2 fold. In the assay with human IgG (human) [1], RCAYHRGELVWCS [GFc-C35-3/15 (D3R, T5A, T7H, N8R, N10E, T15S)] showed a Kd of 0.147 µM. In the assay with human IgG (human) [1], DCAYHRGELVWCT (not fully specified (bridges); cysteine pairing not given here) [GFc-C35-3/15 (T5A, T7H, N8R, N10E)] registered a Kd of 0.054 µM and a fold higher affinity than GFc-C35-3/15 of 2400 fold. In the assay with human IgG (human) [3], the koff amounted to 0.025 s⁻¹, the kon turned out to be 460000 M⁻¹ s⁻¹ and the ratio of Kd against GFc-C35-3/15 came out at 0.0417 fold.

In turn, DCTYTNGDLVWCT [GFc-C35-3/15 (N10D)] returned an equilibrium dissociation constant (Kd) with human IgG (human) [1] of 80 µM. Still for that read-out and setting: under DCTYTNGQLVWCT [GFc-C35-3/15 (N10Q)] stands 160 µM. Regarding DCTYTNGNLVWCT [GFc-C35-3/15], in the assay with human IgG (human) [1], the equilibrium dissociation constant (Kd) amounted to 130 µM.

For DCTYTLGNLVWCT [GFc-C35-3/15 (N8L)], the Kd with human IgG (human) [1] was 260 µM.

B1: N-terminally PEGylated C35A-3/15 (NH2-PEG4-…-NH2) (peptide)
peptide: {NH2‑PEG4}-DCAYHRGELVWCT-NH2
modifications: not fully specified (bridges); printed as NH2-PEG4-DCAYHRGELVWCT-NH2; cysteine pairing not given here; also: coupled through PEG4 amine to HiTrap NHS-activated HP column
On to B1, for which, in the assay with human IgG (human) [4], the protein yield of the eluted fraction D turned out to be 10.4 mg.

For PDCTYTNGNLVWCTF [GFc-C35-2/16], in the assay with human IgG (human) [1], the Kd is 25 µM.

In the assay with human IgG (human) [1], DCTYTRGNLVWCT [GFc-C35-3/15 (N8R)] had a Kd of 8 µM and a fold decrease of Kd against GFc-C35-3/15 of 18 fold. For the molecule DCTWHRGNLVWCT [GFc-C35-3/15 (T7H, N8R, Y6W)], the Kd with human IgG (human) [1] came to 2 µM. The same measure, in the same setting: under DCTYSNGNLVWCT [GFc-C35-3/15 (T7S)] stands 26 µM; under DCTYHRGELVWCT [GFc-C35-3/15 (T7H, N8R, N10E)], 0.27 µM. In the case of DCTYHNGNLVWCT [GFc-C35-3/15 (T7H)], in the assay with human IgG (human) [1], the Kd turned out to be 3 µM and the fold increase of affinity against GFc-C35-3/15 turned out to be 50 fold. For the molecule DCTYTNGRLVWCT [GFc-C35-3/15 (N10R)], the dissociation constant Kd with human IgG (human) [1] was determined as 42 µM.
